How the values were obtained:
Test in all cases: cell-based or functional assay
[1] = biological target: HIV-1 IAVI-C22 envelope protein (Env) on pseudovirus (HIV-1)
[2] = biological target: HIV-1 MGRM-C-007 Env (HIV-1)
[3] = biological target: HIV-1 MGRM-A-007 envelope glycoprotein (Env) (HIV-1)
[4] = biological target: HIV-1 IAVI-C22 envelope glycoprotein (Env) on pseudovirus (HIV-1)
[5] = biological target: HIV-1 Env of isolate MGRM-D-001 (clade D) (HIV-1)
[6] = biological target: HIV-1 92TH021 envelope protein (Env) on pseudovirus (HIV-1)
[7] = biological target: HIV-1 93IN905 envelope glycoprotein (Env) on pseudovirus (HIV-1)
[8] = biological target: HIV-1 Env of isolate MGRM-G-019 (clade G pseudovirus) (HIV-1)
[9] = biological target: HIV-1 Env of isolate MGRM-C-002 (pseudovirus) (HIV-1 isolate MGRM-C-002, subtype C)
[10] = biological target: HIV-1 JR-CSF Env D474A (HIV-1 (isolate JR-CSF)) (UniProt P20871)
[11] = biological target: HIV-1 JR-FL Env (pseudovirus) (HIV-1)
[12] = biological target: HIV-1 Env of isolate MGRM-C-020 (pseudovirus) (HIV-1 isolate MGRM-C-020, subtype C)
[13] = biological target: HIV-1 Env of isolate MGRM-F1-012 (subtype F) (HIV-1)
[14] = biological target: HIV-1 Env of isolate MG RM-D-002 (subtype D) (HIV-1)
[15] = biological target: HIV-1 Env of isolate MG RM-AG-011 (HIV-1)
[16] = biological target: HIV-1 SF162 Env (pseudovirus) (HIV-1) (UniProt P19550)
[17] = biological target: HIV-1 APV_6 Env (pseudovirus) (HIV-1)
[18] = biological target: HIV-1 Env of isolate MGRM-C-009 (pseudovirus) (HIV-1 isolate MGRM-C-009, subtype C)
[19] = biological target: HIV-1 JR-CSF Env R476A (HIV-1 (isolate JR-CSF)) (UniProt P20871)
[20] = biological target: HIV-1 envelope glycoprotein (Env) of isolate MGRM-C-020, on pseudovirus (HIV-1)
[21] = biological target: HIV-1 envelope glycoprotein (Env) of isolate MGRM-C-022, on pseudovirus (HIV-1)
[22] = biological target: HIV-1 Env of isolate MGRM-D-026 (HIV-1)
[23] = biological target: HIV-1 Env of isolate SC422661.8 (HIV-1)
[24] = biological target: HIV-1 Env of isolate MGRM-F1-012 (HIV-1)
[25] = biological target: HIV-1 Env of isolate 93MW959 (HIV-1)
[26] = biological target: HIV-1 Env of isolate 92TH021 (CRF01_AE), on pseudovirus (HIV-1)
[27] = biological target: HIV-1 Env of isolate 98CN006 (HIV-1)
[28] = biological target: HIV-1 Env of isolate 92TH021 (HIV-1)
[29] = biological target: HIV-1 APV13 envelope glycoprotein (Env) on pseudovirus (HIV-1)
[30] = biological target: HIV-1 NL43 envelope protein (Env) on pseudotyped virus (HIV-1 NL43)
[31] = biological target: HIV-1 JR-CSF envelope protein (Env) on pseudotyped virus (HIV-1 isolate JR-CSF) (UniProt P20871)

Chain of 5329_C19 (PGT-136) (antibody) (VH): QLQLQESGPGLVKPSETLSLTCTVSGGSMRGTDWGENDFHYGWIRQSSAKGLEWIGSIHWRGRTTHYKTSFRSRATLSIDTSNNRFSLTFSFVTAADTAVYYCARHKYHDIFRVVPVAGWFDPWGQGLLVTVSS
Chain of 5329_C19 (PGT-136) (antibody) (VL): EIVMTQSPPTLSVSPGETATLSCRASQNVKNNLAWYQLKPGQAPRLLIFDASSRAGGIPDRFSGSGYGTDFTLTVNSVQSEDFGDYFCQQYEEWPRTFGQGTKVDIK
Chain of 5345_I01 (PGT-137) (antibody) (VH): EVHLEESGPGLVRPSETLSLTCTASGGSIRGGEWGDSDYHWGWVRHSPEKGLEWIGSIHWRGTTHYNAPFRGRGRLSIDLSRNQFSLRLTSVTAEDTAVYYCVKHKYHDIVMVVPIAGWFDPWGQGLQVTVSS
Chain of 5345_I01 (PGT-137) (antibody) (VL): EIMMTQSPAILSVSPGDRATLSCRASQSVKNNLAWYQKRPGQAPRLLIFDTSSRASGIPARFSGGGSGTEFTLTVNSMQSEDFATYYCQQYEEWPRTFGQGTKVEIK
Chain of 1443_C16 (PG16) (TCN-116) (antibody) (VH): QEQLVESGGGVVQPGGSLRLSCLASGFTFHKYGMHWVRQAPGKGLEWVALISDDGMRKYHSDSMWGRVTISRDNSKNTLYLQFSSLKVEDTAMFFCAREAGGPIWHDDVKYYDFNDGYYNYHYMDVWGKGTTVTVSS
Chain of 1443_C16 (PG16) (TCN-116) (antibody) (VL): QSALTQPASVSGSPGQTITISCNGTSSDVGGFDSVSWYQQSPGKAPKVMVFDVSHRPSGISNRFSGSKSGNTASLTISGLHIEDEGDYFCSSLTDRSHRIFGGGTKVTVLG

Substance | neutralization IC50 [1] | IC50 [2] | IC50 (µg/ml), pseudovirus neutralization [3] | IC50 (µg/ml), pseudovirus neutralization [5] | neutralization IC50 [6] | IC90 (pseudovirus neutralization) [7] | IC50 (µg/ml), pseudovirus neutralization [8] | IC50 (µg/mL) neutralization [9] | Fold IC50 increase relative to wild-type [10] | IC50 (µg/mL) neutralization [12] | IC50 (µg/mL), pseudovirus neutralization [13] | IC50 (µg/mL), pseudovirus neutralization [14] | neutralization IC50 [15] | IC50, pseudovirus neutralization [16] | IC50, pseudovirus neutralization [17] | IC50 (µg/mL) neutralization [18] | Fold IC50 increase relative to wild-type [19] | IC50, single-round pseudovirus neutralization [26] | IC50 [27] | IC50 [23] | other results
b12 (antibody) | 3.6 µg/mL | > 50 µg/mL | > 50 µg/mL | > 50 µg/mL | 9.99 µg/mL | > 50 µg/mL | 3.77 µg/mL | – | – | – | – | – | – | – | – | – | – | – | – | – | IC90 (pseudovirus neutralization) [4]: 29.6 µg/mL
5145_B14 (PGT-127) (antibody) | – | – | – | – | – | – | – | 0.057 µg/mL | 1.5 fold | > 50 µg/mL | > 50 µg/mL | 0.6 µg/mL | > 50 µg/mL | 0.019 µg/mL | 0.04 µg/mL | > 50 µg/mL | 1.2 fold | – | – | – | IC50, pseudovirus neutralization [11]: 0.029 µg/mL
VRC01 (antibody) | – | – | – | – | – | – | – | – | – | – | – | – | – | – | – | – | – | – | – | – | IC50, pseudovirus neutralization [20]: 0.396 µg/mL; IC50, pseudovirus neutralization [21]: 13 µg/mL; IC50, pseudovirus neutralization [22]: 0.435 µg/mL; neutralization IC50 [23]: 0.179 µg/mL; IC50, pseudovirus neutralization [24]: 0.488 µg/mL; neutralization IC50 [25]: 0.053 µg/mL
5114_A19 (PGT-128) (antibody) | – | – | – | – | – | – | – | – | 0.8 fold | – | – | – | – | – | – | – | 0.7 fold | 0.01 µg/mL | 0.015 µg/mL | 1.58 µg/mL | IC50 [25]: 0.045 µg/mL
5136_H01 (PGT-131) (antibody) | – | – | – | – | – | – | – | – | 1.6 fold | – | – | – | – | – | – | – | 1 fold | 0.014 µg/mL | 35.3 µg/mL | > 50 µg/mL | IC50 [25]: > 50 µg/mL
4E10 (antibody) | 1.02 µg/mL | 5.84 µg/mL | 1.82 µg/mL | 1.84 µg/mL | 1.9 µg/mL | 12.8 µg/mL | 6.53 µg/mL | – | – | – | – | – | – | – | – | – | – | – | – | – | IC50 (µg/ml), pseudovirus neutralization [28]: 1.17 µg/mL; IC90 (pseudovirus neutralization) [4]: 16.4 µg/mL
4858_P08 (PGT-123) (antibody) | – | – | – | – | – | 0.0625 µg/mL | – | 0.01 µg/mL | 1.1 fold | > 50 µg/mL | 22.2 µg/mL | 0.012 µg/mL | > 50 µg/mL | 0.005 µg/mL | 0.023 µg/mL | > 50 µg/mL | 2 fold | – | – | – | IC50, pseudovirus neutralization [11]: 0.014 µg/mL; IC50 (ug/ml), neutralizing activity [7]: 0.0071 µg/mL; IC50, pseudovirus neutralization [7]: 0.0071 µg/mL; IC80, pseudovirus neutralization [7]: 0.0281 µg/mL; IC95, pseudovirus neutralization [7]: 0.131 µg/mL; IC50 (ug/ml), neutralizing activity [29]: 0.222 µg/mL; IC50, pseudovirus neutralization [29]: 0.222 µg/mL; IC80, pseudovirus neutralization [29]: 0.879 µg/mL; IC90 (pseudovirus neutralization) [29]: 1.87 µg/mL; IC95, pseudovirus neutralization [29]: 3.5 µg/mL
5343_B08 (PGT-135) (antibody) | – | – | – | – | – | – | – | – | 1.2 fold | – | – | – | – | – | – | – | 0.8 fold | > 50 µg/mL | 0.429 µg/mL | 21.8 µg/mL | IC50 [25]: > 50 µg/mL
2F5 (antibody) | > 50 µg/mL | > 50 µg/mL | 16.3 µg/mL | 0.63 µg/mL | 1.51 µg/mL | > 50 µg/mL | > 50 µg/mL | – | – | – | – | – | – | – | – | – | – | – | – | – | IC90 (pseudovirus neutralization) [4]: > 50 µg/mL
5147_N06 (PGT-130) (antibody) | – | – | – | – | – | – | – | – | 2 fold | – | – | – | – | – | – | – | 1.3 fold | 0.009 µg/mL | 0.258 µg/mL | > 50 µg/mL | neutralization IC50 [5]: > 10 µg/mL; neutralization IC80 [5]: > 10 µg/mL; neutralization IC90 [5]: > 10 µg/mL; neutralization IC95 [5]: > 10 µg/mL; IC50 [25]: 8.55 µg/mL; IC50 (ug/ml), neutralizing activity [7]: 0.0182 µg/mL; IC50 (ug/ml), neutralizing activity [29]: 0.0345 µg/mL
4838_L06 (PGT-121) (antibody) | – | – | – | – | – | – | – | 0.019 µg/mL | – | > 50 µg/mL | 1.91 µg/mL | 0.006 µg/mL | > 50 µg/mL | 0.005 µg/mL | 0.018 µg/mL | > 50 µg/mL | – | – | – | – | –
1495_C14 (PGC14) (antibody) | 9.5 µg/mL | > 50 µg/mL | > 50 µg/mL | > 50 µg/mL | > 50 µg/mL | – | > 50 µg/mL | – | – | – | – | – | – | – | – | – | – | – | – | – | IC50 (µg/ml), pseudovirus neutralization [28]: > 50 µg/mL; IC50, pseudovirus neutralization, 1 hour Virus/Ab Incubation [30]: 0.35 µg/mL; IC50, pseudovirus neutralization, 18 hour Virus/Ab Incubation [30]: 0.15 µg/mL; IC50, pseudovirus neutralization, 1 hour Virus/Ab Incubation [31]: > 50 µg/mL; IC50, pseudovirus neutralization, 18 hour Virus/Ab Incubation [31]: > 50 µg/mL
5329_C19 (PGT-136) (antibody) | – | – | – | – | – | – | – | – | – | – | – | – | – | – | – | – | – | > 50 µg/mL | 0.406 µg/mL | > 50 µg/mL | IC50 [25]: > 50 µg/mL
1443_C16 (PG16) (TCN-116) (antibody) | 0.0687 µg/mL | 0.05 µg/mL | 5.91 µg/mL | > 50 µg/mL | 0.127 µg/mL | > 50 µg/mL | 1.21 µg/mL | – | – | – | – | – | – | – | – | – | – | – | – | – | IC50 (µg/ml), pseudovirus neutralization [28]: 0.1 µg/mL; IC50, pseudovirus neutralization, 1 hour Virus/Ab Incubation [30]: < 0.0025 µg/mL; IC50, pseudovirus neutralization, 18 hour Virus/Ab Incubation [30]: 4.99 µg/mL; IC50, pseudovirus neutralization, 1 hour Virus/Ab Incubation [31]: < 0.0025 µg/mL; IC50, pseudovirus neutralization, 18 hour Virus/Ab Incubation [31]: < 0.0025 µg/mL; IC90 (pseudovirus neutralization) [4]: > 50 µg/mL
5141_B17 (PGT-126) (antibody) | – | – | – | – | – | – | – | 0.011 µg/mL | 3.3 fold | > 50 µg/mL | 0.3 µg/mL | 0.039 µg/mL | 24.5 µg/mL | 0.003 µg/mL | 0.007 µg/mL | > 50 µg/mL | 1.5 fold | – | – | – | IC50, pseudovirus neutralization [11]: 0.014 µg/mL; IC50 (ug/ml), neutralizing activity [7]: 0.0194 µg/mL; IC50 (ug/ml), neutralizing activity [29]: 0.012 µg/mL
5345_I01 (PGT-137) (antibody) | – | – | – | – | – | – | – | – | – | – | – | – | – | – | – | – | – | > 50 µg/mL | 1.22 µg/mL | > 50 µg/mL | IC50 [25]: > 50 µg/mL
4877_D15 (PGT-122) (antibody) | – | – | – | – | – | – | – | 0.022 µg/mL | – | 14 µg/mL | > 50 µg/mL | 0.005 µg/mL | > 50 µg/mL | 0.009 µg/mL | 0.019 µg/mL | > 50 µg/mL | – | – | – | – | IC50, pseudovirus neutralization [11]: 0.026 µg/mL; IC50 (ug/ml), neutralizing activity [7]: 0.0138 µg/mL; IC50 (ug/ml), neutralizing activity [29]: 0.992 µg/mL
2G12 (antibody) | > 50 µg/mL | > 50 µg/mL | > 50 µg/mL | > 50 µg/mL | > 50 µg/mL | > 50 µg/mL | 31 µg/mL | – | – | – | – | – | – | – | – | – | – | – | – | – | IC50 (µg/ml), pseudovirus neutralization [28]: > 50 µg/mL; IC90 (pseudovirus neutralization) [4]: > 50 µg/mL
5123_A06 (PGT-125) (antibody) | – | – | – | – | – | – | – | 0.008 µg/mL | 1.4 fold | > 50 µg/mL | > 50 µg/mL | 0.118 µg/mL | > 50 µg/mL | 0.004 µg/mL | 0.021 µg/mL | > 50 µg/mL | 1.9 fold | – | – | – | IC50, pseudovirus neutralization [11]: 0.009 µg/mL; IC50 (ug/ml), neutralizing activity [7]: 0.0137 µg/mL; neutralization IC50 [7]: 0.0137 µg/mL; neutralization IC80 [7]: 0.0494 µg/mL; neutralization IC90 [7]: 0.106 µg/mL; neutralization IC95 [7]: 0.216 µg/mL; IC50 (ug/ml), neutralizing activity [29]: 0.0128 µg/mL; neutralization IC50 [29]: 0.0128 µg/mL; neutralization IC80 [29]: 0.0414 µg/mL; neutralization IC90 [29]: 0.0821 µg/mL; neutralization IC95 [29]: 0.154 µg/mL
